# Measured values from the supplement of paper PMC10724198.
# ± gives the standard deviation of the averaged measurements.
# How the values were obtained:
# Saccharomyces cerevisiae [1] = test: protein stability index of tFT-peptide fusion (C-terminal peptide) (PSI (0-1 scale)); higher = more stable (slower turnover)
# Protocol: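 MPS profiling in S. cerevisiae of the tFT-X12 degron library: putative degron peptides plus stable controls, 12 aa, fused to the C-terminus of a sfGFP-mCherry timer. Cells are FACS-sorted into 8 mCherry/sfGFP bins and deep-sequenced. PSI runs from 0 (unstable) to 1 (stable). Backgrounds are wild type, das1Δ and doa10Δ at 30 °C, and wild type, das1Δ, cdc34-1 and cdc53-1 at 37 °C; 2-3 technical replicates each.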
# Saccharomyces cerevisiae [2] = test: as above; details: genetic background: wild type; temperature: 30 C
# [3] = genetic background: cdc34-1, temperature: 37 C
# [4] = genetic background: cdc53-1, temperature: 37 C
# [5] = genetic background: das1 deletion, temperature: 30 C
# [6] = genetic background: das1 deletion, temperature: 37 C
# [7] = genetic background: doa10 deletion, temperature: 30 C
# [8] = genetic background: wild type, temperature: 30 C
# [9] = genetic background: wild type, temperature: 37 C
# 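Also: PSI is a weighted mean of sequencing reads over stability bins, variants kept only with over 10 reads, mCherry proximal and sfGFP distal, peptide attached via GGGS linker.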
Sequence,protein stability index (Saccharomyces cerevisiae [1]; [3]),protein stability index (Saccharomyces cerevisiae [1]; [4]),protein stability index (Saccharomyces cerevisiae [1]; [5]),protein stability index (Saccharomyces cerevisiae [1]; [6]),protein stability index (Saccharomyces cerevisiae [1]; [7]),protein stability index (Saccharomyces cerevisiae [1]; [8]),protein stability index (Saccharomyces cerevisiae [1]; [9]),protein stability index (Saccharomyces cerevisiae [2])
RSKWEKLDKIVS,0.675 ± 0.032,0.777 ± 0.045,0.629 ± 0.051,0.681 ± 0.0091,0.314 ± 0.022,0.396 ± 0.047,0.575 ± 0.018,0.455 ± 0.0083
RVCVFVLFGLCF,0.352 ± 0.041,0.401 ± 0.0075,0.324 ± 0.04,0.48 ± 0.0059,0.309 ± 0.0047,0.315 ± 0.022,0.441 ± 0.0053,0.383 ± 0.011
RWGLCFVHVTMF,0.0369 ± 0.011,0.0963 ± 0.011,0.149 ± 0.046,0.215 ± 0.015,0.115 ± 0.01,0.106 ± 0.039,0.152 ± 0.014,0.173 ± 0.011
RWRLWVGWWVVG,0.4532 ± 0.0039,0.587 ± 0.0088,0.456 ± 0.022,0.601 ± 0.013,0.1043 ± 0.00095,0.118 ± 0.0076,0.142 ± 0.017,0.12 ± 0.0055
RYRVRIVVFGLV,0.407 ± 0.018,0.485 ± 0.068,0.365 ± 0.015,0.59 ± 0.032,0.075 ± 0.02,0.088 ± 0.046,0.0807 ± 0.0076,0.14 ± 0.018
SCFCFRVLLCSF,0.333 ± 0.041,0.348 ± 0.0054,0.336 ± 0.023,0.402 ± 0.019,0.325 ± 0.021,0.297 ± 0.019,0.364 ± 0.0086,0.383 ± 0.0064
SCLFMLFPLVSV,0.475 ± 0.0048,0.505 ± 0.015,0.421 ± 0.031,0.529 ± 0.01,0.412 ± 0.0097,0.409 ± 0.033,0.5013 ± 0.0033,0.432 ± 0.0046
SCLLVVVSTSGN,0.5364 ± 0.0018,0.573 ± 0.0061,0.404 ± 0.043,0.611 ± 0.0019,0.374 ± 0.015,0.4057 ± 0.002,0.588 ± 0.022,0.433 ± 0.0062
SFFVCVRVFGCC,0.315 ± 0.012,0.369 ± 0.011,0.255 ± 0.042,0.44 ± 0.0095,0.2075 ± 0.0016,0.239 ± 0.018,0.398 ± 0.011,0.337 ± 0.021
SFFWAMSLLCFV,0.511 ± 0.025,0.559 ± 0.012,0.443 ± 0.025,0.549 ± 0.018,0.402 ± 0.022,0.414 ± 0.024,0.498 ± 0.00077,0.455 ± 0.043
SFGLICFLILCG,0.218 ± 0.0065,0.218 ± 0.052,0.206 ± 0.03,0.372 ± 0.038,0.173 ± 0.023,0.205 ± 0.014,0.301 ± 0.0073,0.2964 ± 0.00086
SFIVGYRWNNRN,0.672 ± 0.018,0.738 ± 0.035,0.647 ± 0.015,0.7542 ± 0.0063,0.337 ± 0.033,0.378 ± 0.0046,0.5776 ± 0.0018,0.443 ± 0.047
SFVVVFTFFFGC,0.272 ± 0.018,0.381 ± 0.031,0.239 ± 0.032,0.408 ± 0.026,0.221 ± 0.011,0.258 ± 0.036,0.377 ± 0.02,0.312 ± 0.015
SGFLRFRGLVCY,0.396 ± 0.016,0.445 ± 0.021,0.288 ± 0.043,0.503 ± 0.0067,0.233 ± 0.0028,0.278 ± 0.038,0.464 ± 0.008,0.359 ± 0.019
SGFWVSVDVFFV,0.0673 ± 0.026,0.171 ± 0.022,0.155 ± 0.03,0.32 ± 0.015,0.122 ± 0.012,0.136 ± 0.026,0.29 ± 0.0036,0.2434 ± 0.0016
SGLPLVILFLCL,0.529 ± 0.0086,0.635 ± 0.04,0.435 ± 0.028,0.625 ± 0.022,0.441 ± 0.026,0.436 ± 0.019,0.576 ± 0.038,0.476 ± 0.0088
SGRATSSRTSEP,0.67 ± 0.035,0.72963 ± 0.00027,0.661 ± 0.01,0.713 ± 0.0042,0.662 ± 0.03,0.6625 ± 0.0048,0.7036 ± 0.0011,0.78 ± 0.024
SGWGCRMVVCAG,0.154 ± 0.026,0.192 ± 0.028,0.186 ± 0.027,0.299 ± 0.011,0.152 ± 0.0088,0.197 ± 0.029,0.265 ± 0.0084,0.245 ± 0.0031
SHPAPPSPPPSP,0.618 ± 0.078,0.676 ± 0.0076,0.384 ± 0.025,0.537 ± 0.014,0.363 ± 0.0086,0.391 ± 0.025,0.534 ± 0.0059,0.413 ± 0.0094
SILFSYFCFFLL,0.523 ± 0.027,0.545 ± 0.019,0.441 ± 0.031,0.586 ± 0.014,0.274 ± 0.0065,0.273 ± 0.028,0.443 ± 0.0077,0.356 ± 0.01

Sequence,protein stability index (Saccharomyces cerevisiae [1]; [3]),protein stability index (Saccharomyces cerevisiae [1]; [4]),protein stability index (Saccharomyces cerevisiae [1]; [5]),protein stability index (Saccharomyces cerevisiae [1]; [6]),protein stability index (Saccharomyces cerevisiae [1]; [7]),protein stability index (Saccharomyces cerevisiae [1]; [8]),protein stability index (Saccharomyces cerevisiae [1]; [9]),protein stability index (Saccharomyces cerevisiae [2])
SLCPFLCILCFG,0.327 ± 0.0041,0.321 ± 0.036,0.28 ± 0.023,0.402 ± 0.0015,0.245 ± 0.0064,0.259 ± 0.021,0.347 ± 0.0085,0.355 ± 0.009
SLCVVIFFSSIT,0.301 ± 0.011,0.437 ± 0.037,0.274 ± 0.031,0.468 ± 0.019,0.2524 ± 0.0025,0.266 ± 0.041,0.413 ± 0.0017,0.356 ± 0.02
SLPVSPLVRLLA,0.563 ± 0.017,0.599 ± 0.0093,0.486 ± 0.026,0.611 ± 0.0096,0.127 ± 0.015,0.138 ± 0.02,0.2102 ± 0.0012,0.235 ± 0.021
SLRICACMTVSW,0.3 ± 0.0079,0.373 ± 0.013,0.404 ± 0.086,0.335 ± 0.0069,0.366 ± 0.0045,0.353 ± 0.012,0.29 ± 0.013,0.353 ± 0.005
SLSALPRPPRLL,0.669 ± 0.0078,0.713 ± 0.022,0.673 ± 0.021,0.7323 ± 0.0002,0.698 ± 0.027,0.677 ± 0.023,0.694 ± 0.0087,0.614 ± 0.26
SPPHSPSALPPP,0.674 ± 0.025,0.726 ± 0.0086,0.656 ± 0.023,0.732 ± 0.019,0.685 ± 0.022,0.669 ± 0.0081,0.701 ± 0.0078,0.587 ± 0.15
SPWSIHLILLQV,0.209 ± 0.016,0.312 ± 0.0012,0.265 ± 0.033,0.438 ± 0.018,0.1894 ± 0.00096,0.203 ± 0.029,0.36 ± 0.034,0.318 ± 0.025
SQCVVYLSVRFS,0.358 ± 0.067,0.5 ± 0.017,0.34 ± 0.028,0.47856 ± 0.00019,0.326 ± 0.014,0.353 ± 0.011,0.4565 ± 0.0028,0.447 ± 0.024
SQKKKIKKYKET,0.574 ± 0.032,0.665 ± 0.14,0.644 ± 0.032,0.706 ± 0.018,0.172 ± 0.0036,0.147 ± 0.041,0.208 ± 0.049,0.217 ± 0.033
SREQANTVYRLI,0.689 ± 0.011,0.7132 ± 0.0048,0.631 ± 0.018,0.7187 ± 0.0036,0.254 ± 0.0066,0.3 ± 0.0074,0.553 ± 0.0053,0.376 ± 0.008
SRFFSCCVFPSF,0.704 ± 0.02,0.7941 ± 0.0034,0.67 ± 0.037,0.781 ± 0.016,0.6764 ± 0.0041,0.654 ± 0.0089,0.737 ± 0.023,0.766 ± 0.017
SRKRIVALMLSG,0.628 ± 0.012,0.678 ± 0.061,0.615 ± 0.029,0.686 ± 0.032,0.153 ± 0.013,0.18 ± 0.02,0.273 ± 0.0082,0.292 ± 0.013
SRNSSRYLLLVS,0.539 ± 0.05,0.58 ± 0.076,0.52 ± 0.046,0.649 ± 0.0096,0.211 ± 0.032,0.251 ± 0.027,0.405 ± 0.011,0.316 ± 0.013
SRVGAGVVRGVG,0.481 ± 0.031,0.534 ± 0.015,0.498 ± 0.007,0.5403 ± 0.0051,0.512 ± 0.011,0.493 ± 0.012,0.5391 ± 0.0031,0.488 ± 0.038
SRVHHLWAILVP,0.231 ± 0.015,0.265 ± 0.0052,0.238 ± 0.034,0.3712 ± 0.0019,0.18 ± 0.0099,0.228 ± 0.026,0.339 ± 0.0039,0.345 ± 0.016
SSGAVGLVIVVC,0.113 ± 0.028,0.185 ± 0.01,0.214 ± 0.049,0.309 ± 0.0093,0.155 ± 0.018,0.205 ± 0.023,0.247 ± 0.0078,0.276 ± 0.014
SSGRLRFISRIH,0.654 ± 0.033,0.7064 ± 0.0053,0.656 ± 0.048,0.7487 ± 0.0033,0.316 ± 0.019,0.347 ± 0.018,0.5972 ± 0.0037,0.454 ± 0.027
SSVFLGWLIVCY,0.0861 ± 0.0015,0.115 ± 0.033,0.173 ± 0.043,0.2851 ± 0.0027,0.154 ± 0.0099,0.168 ± 0.021,0.255 ± 0.027,0.245 ± 0.0037
SSVGLFVLLCLV,0.31 ± 0.028,0.333 ± 0.017,0.271 ± 0.039,0.503 ± 0.07,0.2 ± 0.0056,0.205 ± 0.015,0.323 ± 0.0056,0.302 ± 0.02
